Results: patent publication US20220332795A1 (ARO BIOTHERAPEUTICS, published 2022)
Positions count from the first letter of the chain named. Blank lines part the entries; values can stand above or below the binder they belong to.

Legend:
[1] = molecular target: T1, recombinant biotinylated CD71 extracellular domain (Sino Biologics) with an N-terminal 6His tag (human, UniProt P02786 89-760, biotinylated (site not stated)); assay: primary solution ELISA screen, signal on hCD71 over HSA
T1 construct: extracellular domain; also called hCD71; huCD71 ECD
T1 sequence (P02786 other isoform, or with tags, fused parts or gaps): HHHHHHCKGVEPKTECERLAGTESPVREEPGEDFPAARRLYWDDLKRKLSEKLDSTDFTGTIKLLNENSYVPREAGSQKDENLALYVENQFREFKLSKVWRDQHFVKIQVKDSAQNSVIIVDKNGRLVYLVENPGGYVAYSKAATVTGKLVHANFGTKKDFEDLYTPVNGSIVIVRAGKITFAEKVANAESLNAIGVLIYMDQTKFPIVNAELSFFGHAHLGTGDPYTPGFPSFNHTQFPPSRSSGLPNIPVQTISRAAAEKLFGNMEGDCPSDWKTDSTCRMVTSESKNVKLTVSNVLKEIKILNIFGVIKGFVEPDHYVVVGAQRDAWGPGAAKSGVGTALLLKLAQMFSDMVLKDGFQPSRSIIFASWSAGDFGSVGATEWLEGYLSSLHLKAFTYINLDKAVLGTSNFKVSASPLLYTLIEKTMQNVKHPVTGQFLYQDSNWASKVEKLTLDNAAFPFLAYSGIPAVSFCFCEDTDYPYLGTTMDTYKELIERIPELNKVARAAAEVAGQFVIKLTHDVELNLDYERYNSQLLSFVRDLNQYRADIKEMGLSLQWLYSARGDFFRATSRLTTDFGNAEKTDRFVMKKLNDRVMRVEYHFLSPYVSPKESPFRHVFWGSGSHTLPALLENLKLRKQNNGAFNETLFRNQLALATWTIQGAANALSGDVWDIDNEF

[2] = molecular target: T1, recombinant biotinylated CD71 …; assay: primary solution ELISA screen

hCD71:HSA [1]: 63
RLU [2]: 518000 RLU
B1: SEQ ID NO 38 (designed binder, not shown: small tags and cut ends)
chain: MLPAPKNLVVSRVTEDSARLSWTAPDAAFDSFPILYLEHTVRSEAIVLTVPGSERSYDLTDLKPGTEYCVPIDGVKGGLRSRPLSAIFTT
notes: FN3 domain, hit of the apical domain panning

hCD71:HSA [1]: 29
RLU [2]: 1.48e+06 RLU
B2: SEQ ID NO 39 (designed binder, not shown: small tags and cut ends)
chain: MLPAPKNLVVSRVTEDSARLSWTAPDAAFDSFPIPYTEPPDPGEAIVLTVPGSERSYDLTGLKPGTEYLVTILGVKGGSMSVPLSAIFTT
notes: as for B1

hCD71:HSA [1]: 25
RLU [2]: 1.24e+06 RLU
B3: SEQ ID NO 12 (designed binder, not shown: small tags and cut ends)
chain: MLPAPKNLVVSRVTEDSARLSWTAPDAAFDSFFIPYAEPSPTGEAIVLTVPGSERSYDLTGLKPGTEYSVLIHGVKGGHLSDPLSAISTT
notes: as for B1

hCD71:HSA [1]: 14
RLU [2]: 521000 RLU
B4: SEQ ID NO 68 (designed binder, not shown: small tags and cut ends)
chain: B3 chain with F33I, P39V, S40R, T42D
notes: as for B1

hCD71:HSA [1]: 105
RLU [2]: 1.56e+06 RLU
B5: SEQ ID NO 82 (designed binder, not shown: small tags and cut ends)
chain: B3 chain with F33L, P39T, T42S, H79D, L80Y, D82S, S88F
notes: as for B1

hCD71:HSA [1]: 29
RLU [2]: 3.26e+06 RLU
B6: SEQ ID NO 83 (designed binder, not shown: small tags and cut ends)
chain: B3 chain with F33P, P35A, S40R, T42D, H79L, D82S
notes: as for B1

hCD71:HSA [1]: 586
RLU [2]: 586000 RLU
B7: SEQ ID NO 42 (designed binder, not shown: small tags and cut ends)
chain: B3 chain with F33L, P39T, T42S, H79D, L80Y, D82E, S88F
notes: as for B1

hCD71:HSA [1]: 218
RLU [2]: 1.31e+06 RLU
B8: SEQ ID NO 64 (designed binder, not shown: small tags and cut ends)
chain: B3 chain with F33Y, P35V, S40I, T42N, H79R, L80N, S88F
notes: as for B1

hCD71:HSA [1]: 13
RLU [2]: 715000 RLU
B9: SEQ ID NO 44 (designed binder, not shown: small tags and cut ends)
chain: B3 chain with S88V
notes: as for B1

hCD71:HSA [1]: 71
RLU [2]: 739000 RLU
B10: SEQ ID NO 77 (designed binder, not shown: small tags and cut ends)
chain: B3 chain with F33P, P35A, S40R, T42D, H79L, D82S, S88F
notes: as for B1

hCD71:HSA [1]: 127
RLU [2]: 1.04e+06 RLU
B11: SEQ ID NO 46 (designed binder, not shown: small tags and cut ends)
chain: B3 chain with F33I, P39V, S40R, T42D, H79K, D82L, S88F
notes: as for B1

hCD71:HSA [1]: 60
RLU [2]: 959000 RLU
B12: SEQ ID NO 65 (designed binder, not shown: small tags and cut ends)
chain: B3 chain with E15K, F33P, P35A, S40R, T42D, H79L, D82S, S88F
notes: as for B1

hCD71:HSA [1]: 29
RLU [2]: 1.12e+06 RLU
B13: SEQ ID NO 57 (designed binder, not shown: small tags and cut ends)
chain: B3 chain with F33A, P39L, P41R, T42N, S69T, H79C, S88F
notes: as for B1

hCD71:HSA [1]: 45
RLU [2]: 440000 RLU
B14: SEQ ID NO 99 (designed binder, not shown: small tags and cut ends)
chain: B3 chain with A86V, S88F
notes: as for B1

hCD71:HSA [1]: 70
RLU [2]: 969000 RLU
B15: SEQ ID NO 49 (designed binder, not shown: small tags and cut ends)
chain: B3 chain with F33P, P35A, S40R, T42D, H79D, L80W, D82L, S88F
notes: as for B1

hCD71:HSA [1]: 103
RLU [2]: 2.95e+06 RLU
B16: SEQ ID NO 37 (designed binder, not shown: small tags and cut ends)
chain: MLPAPKNLVVSRVTEDSARLSWTTPDAAFDSFPIYYWEVTITGEAIYLSVPGSERSYDLTGLKPGTEYPVDIPGVKGGAASPPLSAIFTT
notes: as for B1

hCD71:HSA [1]: 98
RLU [2]: 1.99e+06 RLU
B17: SEQ ID NO 47 (designed binder, not shown: small tags and cut ends)
chain: MLPAPKNLVVSRVTEDSARLSWTAPDAAFDSFGIVYLEMMVTGEAIVLTVPGSERSYDLTGLKPGTEYDVPILGVKGGTRSVPLSAIFTT
notes: as for B1

hCD71:HSA [1]: 96
RLU [2]: 1.51e+06 RLU
B18: SEQ ID NO 1 (designed binder, not shown: small tags and cut ends)
chain: MLPAPKNLVVSRVTEDSARLSWTAPDAAFDSFPITYIEAVVLGEAIVLTVPGSERSYDLTGLKPGTEYPVGISGVKGGHNSMPLSAIFTT
notes: as for B1

hCD71:HSA [1]: 53
RLU [2]: 956000 RLU
B19: SEQ ID NO 19 (designed binder, not shown: small tags and cut ends)
chain: B18 chain with P33A, I37T, V40A, V41L, L42C, G71P, S73N, H79G, N80T, M82G
notes: as for B1

hCD71:HSA [1]: 99
RLU [2]: 1.92e+06 RLU
B20: SEQ ID NO 56 (designed binder, not shown: small tags and cut ends)
chain: MLPAPKNLVVSRVTEDSARLSWTAPDAAFDSFSIGYVELVLLGEAIVLTVPGSERSYDLTGLKPGTEYDVLIPGVKGGSLSRPLSAIFTT
notes: as for B1

hCD71:HSA [1]: 132
RLU [2]: 271000 RLU
B21: SEQ ID NO 33 (designed binder, not shown: small tags and cut ends)
chain: MLPAPKNLVVSRVTEDSARLSWTAPDAAFDSFGIAYVESYWYGEAIVLTVPGSERSYDLTGLKPGTEYNVPIYGVKGGDGSGPLSAIFTT
notes: as for B1

hCD71:HSA [1]: 38
RLU [2]: 338000 RLU
B22: SEQ ID NO 72 (designed binder, not shown: small tags and cut ends)
chain: B21 chain with G33T, A35G, V37R, S39W, Y73S, D79L, G80D, G82F
notes: as for B1

hCD71:HSA [1]: 79
RLU [2]: 828000 RLU
B23: SEQ ID NO 18 (designed binder, not shown: small tags and cut ends)
chain: MLPAPKNLVVSRVTEDSARLSWTAPDAAFDSFNIMYHEIIYVGEAIVLTVPGSERSYDLTGLKPGTEYPVPIEGVKGGGTSGPLSAIFTT
notes: as for B1

hCD71:HSA [1]: 61
RLU [2]: 221000 RLU
B24: SEQ ID NO 17 (designed binder, not shown: small tags and cut ends)
chain: B23 chain with N33P, M35L, H37T, I39C, I40V, V42R, P69H, E73T, T80G, G82W
notes: as for B1

hCD71:HSA [1]: 36
RLU [2]: 772000 RLU
B25: SEQ ID NO 43 (designed binder, not shown: small tags and cut ends)
chain: B17 chain with G33M, L37Y, M39Y, M40T, V41R, T42F, D69T, L73D, T79G, V82S
notes: as for B1

hCD71:HSA [1]: 70
RLU [2]: 1.73e+06 RLU
B26: SEQ ID NO 13 (designed binder, not shown: small tags and cut ends)
chain: B21 chain with G33L, V37P, S39D, Y40G, W41F, Y42R, N69P, Y73L, D79G
notes: as for B1

hCD71:HSA [1]: 195
RLU [2]: 1.58e+06 RLU
B27: SEQ ID NO 34 (designed binder, not shown: small tags and cut ends)
chain: B20 chain with S33Y, G35T, V40N, L42A, D69P, L71P, P73L, R82Q
notes: as for B1

hCD71:HSA [1]: 46
RLU [2]: 205000 RLU
B28: SEQ ID NO 30 (designed binder, not shown: small tags and cut ends)
chain: MLPAPKNLVVSRVTEDSARLSWTAPDAAFDSFIIHYVEQQLIGEAIVLTVPGSERSYDLTGLKPGTEYPVPITGVKGGACSWPLSAIFTT
notes: as for B1

hCD71:HSA [1]: 21
RLU [2]: 515000 RLU
B29: SEQ ID NO 88 (designed binder, not shown: small tags and cut ends)
chain: MLPAPKNLVVSRVTEDSARLSWTAPDAAFDSFPIKYREVLRCGEAIVLTVPGSERSYDLTGLKPGTEYTVPITGVKGGFGSSPLSAIFTT
notes: as for B1

hCD71:HSA [1]: 12
RLU [2]: 2.1e+06 RLU
B30: SEQ ID NO 4 (designed binder, not shown: small tags and cut ends)
chain: MLPAPKNLVVSEVTEDSARLSWQGVARAFDSFLITYRDQIFAGEVIVLTVPGSERSYDLTGLKPGTEYPVWIQGVKGGSPSAPLSAESTT
notes: as for B1

hCD71:HSA [1]: 60
RLU [2]: 288000 RLU
B31: SEQ ID NO 36 (designed binder, not shown: small tags and cut ends)
chain: B30 chain with D38E, L48P, W71P, Q73A, S79G, E87I, S88F
notes: as for B1

hCD71:HSA [1]: 75
RLU [2]: 342000 RLU
B32: SEQ ID NO 32 (designed binder, not shown: small tags and cut ends)
chain: B30 chain with E12R, D38E, P69G, W71T, Q73A, S79W, P80R, A82K, S85N
notes: as for B1

hCD71:HSA [1]: 10
RLU [2]: 991000 RLU
B33: SEQ ID NO 70 (designed binder, not shown: small tags and cut ends)
chain: B30 chain with E12R, D38E, S79D, P80L, A82N, E87I, S88F
notes: as for B1

hCD71:HSA [1]: 28
RLU [2]: 3.53e+06 RLU
B34: SEQ ID NO 84 (designed binder, not shown: small tags and cut ends)
chain: MLPAPKNLVVSRVTEDSARLSWQGVARAFDSFSILYLELTPKGEAIVLTVPGSERSYDLTGLKPGTEYPVWIQGVKGGSPSAPLSAEFTT
notes: as for B1

hCD71:HSA [1]: 29
RLU [2]: 761000 RLU
B35: SEQ ID NO 7 (designed binder, not shown: small tags and cut ends)
chain: B30 chain with E12D, D38E, S88F
notes: as for B1

hCD71:HSA [1]: 11
RLU [2]: 444000 RLU
B36: SEQ ID NO 102 (designed binder, not shown: small tags and cut ends)
chain: B30 chain with E12R, D38E, S88F
notes: as for B1

hCD71:HSA [1]: 88
RLU [2]: 864000 RLU
B37: SEQ ID NO 81 (designed binder, not shown: small tags and cut ends)
chain: B34 chain with S33L, L35T, L37V, T40R, P41H, K42L
notes: as for B1

hCD71:HSA [1]: 28
RLU [2]: 383000 RLU
B38: SEQ ID NO 28 (designed binder, not shown: small tags and cut ends)
chain: B30 chain with A26V, D38E, S88F
notes: as for B1

hCD71:HSA [1]: 12
RLU [2]: 1.37e+06 RLU
B39: SEQ ID NO 41 (designed binder, not shown: small tags and cut ends)
chain: B30 chain with E12R, D38E, S79H, P80L, A82D, E87I, S88V
notes: as for B1

hCD71:HSA [1]: 73
RLU [2]: 1.47e+06 RLU
B40: SEQ ID NO 73 (designed binder, not shown: small tags and cut ends)
chain: B30 chain with D38E
notes: as for B1

hCD71:HSA [1]: 12
RLU [2]: 1.02e+06 RLU
B41: SEQ ID NO 94 (designed binder, not shown: small tags and cut ends)
chain: B30 chain with D38E, E87I, S88F
notes: as for B1

hCD71:HSA [1]: 35
RLU [2]: 512000 RLU
B42: SEQ ID NO 15 (designed binder, not shown: small tags and cut ends)
chain: B30 chain with E12R, D38E, Y68C, S88F
notes: as for B1

hCD71:HSA [1]: 39
RLU [2]: 1.73e+06 RLU
B43: SEQ ID NO 5 (designed binder, not shown: small tags and cut ends)
chain: B30 chain with D38E, P69W, W71Y, Q73W, S79K, A82F, S85R, E87G, S88F
notes: as for B1

hCD71:HSA [1]: 40
RLU [2]: 1.27e+06 RLU
B44: SEQ ID NO 53 (designed binder, not shown: small tags and cut ends)
chain: B30 chain with K6E, D38E
notes: as for B1

hCD71:HSA [1]: 16
RLU [2]: 223000 RLU
B45: SEQ ID NO 40 (designed binder, not shown: small tags and cut ends)
chain: MLPAPKNLVVSRVTEDSARLSWTAPDAAFDSFTIDYWENRCPGEAIVLTVPGSERSYDLTGLKPGTEYCVWISGVKGGYSSWPLSAIFTT
notes: as for B1
